Test results: article PMC2903050 (Journal of molecular biology, 2010)

Key:
[1] = target: T1, botulinum neurotoxin serotype A light chain residues 1-448 (Clostridium botulinum, BoNT/A1 …, UniProt P0DPI0); test: flow cytometry on cells
[2] = target: T1, botulinum neurotoxin serotype A light …; test: KinExA
Target sequence in this assay (P0DPI0 1-448): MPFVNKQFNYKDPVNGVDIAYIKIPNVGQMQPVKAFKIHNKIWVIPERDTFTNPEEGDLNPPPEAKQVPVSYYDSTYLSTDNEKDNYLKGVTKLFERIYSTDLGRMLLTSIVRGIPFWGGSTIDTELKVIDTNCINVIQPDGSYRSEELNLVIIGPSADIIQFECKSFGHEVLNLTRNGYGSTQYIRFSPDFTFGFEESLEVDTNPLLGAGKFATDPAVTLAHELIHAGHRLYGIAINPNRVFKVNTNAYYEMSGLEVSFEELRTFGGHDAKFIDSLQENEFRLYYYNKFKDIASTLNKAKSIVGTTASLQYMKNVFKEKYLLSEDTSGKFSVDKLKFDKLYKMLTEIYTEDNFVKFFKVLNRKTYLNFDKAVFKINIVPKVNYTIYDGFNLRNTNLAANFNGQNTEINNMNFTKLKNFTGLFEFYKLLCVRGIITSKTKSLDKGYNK

[3] = target: truncated BoNT/A Lc containing residues 1-425 (Clostridium botulinum, UniProt P0DPI0); test: […]
Chain of truncated BoNT/A Lc containing residues 1-425 (P0DPI0 1-425): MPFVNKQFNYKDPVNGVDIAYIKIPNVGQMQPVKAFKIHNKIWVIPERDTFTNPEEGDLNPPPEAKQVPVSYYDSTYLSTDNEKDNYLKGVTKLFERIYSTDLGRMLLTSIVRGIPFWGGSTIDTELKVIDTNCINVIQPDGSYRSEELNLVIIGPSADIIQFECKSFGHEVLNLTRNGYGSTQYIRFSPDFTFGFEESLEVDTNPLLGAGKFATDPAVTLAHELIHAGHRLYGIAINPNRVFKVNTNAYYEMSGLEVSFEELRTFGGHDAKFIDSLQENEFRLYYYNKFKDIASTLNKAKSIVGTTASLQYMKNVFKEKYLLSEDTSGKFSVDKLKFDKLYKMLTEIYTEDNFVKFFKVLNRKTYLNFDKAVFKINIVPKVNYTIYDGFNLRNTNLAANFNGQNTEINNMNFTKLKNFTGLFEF

B1: Aa1 VHH, yeast displayed (VHH)
VHH: AVQLVDSGGGTLQAGKSLRLSCAISGLAFDGGAMGSEHRLTAGAMGWFRQAPGKDREFVAAISPRTDETYYAESLEGRFSVSRDAAATMVFLQADNVRLDDTASYYCAADEDVTPRVMGVIPHADHWGQGTLVTVSS
Kd [1]: 0.03 nM

B2: Aa1 VHH, purified (VHH)
VHH: B1 VHH
Kd [2]: 0.147 nM | koff [2]: 0.00666 s⁻¹ | kon [2]: 4.39e+07 M⁻¹ s⁻¹

B3: Aa1 VHH, for crystal growing (VHH)
VHH: B1 VHH
stoichiometry N [3]: 1
